Test results published in patent publication US20090209022A1 (AstraZeneca / MedImmune, published 2009).

Biological target: the molecule itself
Test: X-ray crystallography, partial model and electron density map

B1: H. influenzae pyrH UMP kinase (HI-1065), SeMet labelled, expressed from pSM145 (enzyme)
chain: GQPIYKRILLKLSGEALQGEDGLGIDPAILDRMAVEIKELVEMGVEVSVVLGGGNLFRGAKLAKAGMNRVVGDHMGMLATVMNGLAMRDSLFRADVNAKLMSAFQLNGICDTYNWSEAIKMLREKRVVIFSAGTGNPFFTTDSTACLRGIEIEADVVLKATKVDGVYDCDPAKNPDAKLYKNLSYAEVIDKELKVMDLSAFTLARDHGMPIRVFNMGKPGALRQVVTGTEEGTTIC
modifications: all methionines substituted with seleno-methionine (SeMet) in the crystallised protein
notes: Homohexamer (trimer of dimers); The crystal asymmetric unit holds eight chains: one hexamer and one dimer that gives a hexamer by crystallographic symmetry; The crystal also holds GTP (modelled as GDP) and phosphate
B1: binds.
